Data published in paper PMC4660199.
Where no end group is shown, it is not given here.

Target: full-length cpSRP43 (UniProt O22265)
Assay: ITC; VP-ITC, 20 °C, 20 mM Hepes (pH 7.5), 150 mM NaCl, 5 mM MgCl2, 0.25 mM TCEP; 0.01–0.1 mM in the cell, 0.1–1.0 mM in the syringe; duplicate or triplicate

Kd [µM]	Binder
44	A3CT K457A/R458A (domain or fragment) DENASKIISAGRAKRSIAQPDDAGERFRQLKEQEKRSKKNKAVAKDTVELVEESQSESEEGSDDEEEEAREGALASSTTSKPLPEVGQRRSKRSAAKRTV
20	A3CT K459A/R460A (domain or fragment) DENASKIISAGRAKRSIAQPDDAGERFRQLKEQEKRSKKNKAVAKDTVELVEESQSESEEGSDDEEEEAREGALASSTTSKPLPEVGQRRSKRSKRAATV
15	GALASSTTSKPLPEVGQRRSKRSKRKRT (also: 15N,13C labelled where it is the observed NMR partner) [A3CT IV peptide]
